The record followed here is publication PMC3474958, “pH-sensitive Self-associations of the N-terminal Domain of NBCe1-A Suggest a Compact Conformation under Acidic Intracellular Conditions” (Protein and Peptide Letters, 2012).

In data set [1] the target is NtNBCe1-A (cytoplasmic N-terminal domain of the electrogenic Na/HCO3 cotransporter NBCe1-A, SLC4A4) (UniProt Q9Y6R1). Description: Size-exclusion chromatography with multi-angle light scattering and refractive index detection (MALS-SEC). The settings on record: pH 11.5; 150mM NaCl; 50mM Tris at every pH analysed.
For data set [2] the target is unchanged. Description: Dynamic light scattering (DLS), batch mode. The settings on record: pH slightly acidic (6.5 by the Figure 1 caption and Discussion); 150 mM NaCl; 50mM Tris at every pH.
Data set [3] deals with NtNBCe1-A (cytoplasmic N-terminal domain of the electrogenic Na/HCO3 cotransporter NBCe1-A, SLC4A4) (UniProt Q9Y6R1+Q9Y6R1). Description: Dynamic light scattering (DLS), batch mode. As to conditions: pH 7.4; 150 mM NaCl; 50mM Tris at every pH.
Data set [4] concerns the molecule itself. The data set can be described thus: SEC-MALS; ~2 mg/ml (0.5 ml) on Superdex-200 HR 10/30; 50 mM Tris, 150 mM NaCl, 1 mM TCEP; neutral pH; monomer to dimer.
Data set [5] concerns the molecule itself. Description: SEC-MALS; neutral pH, 0 mM against 10 mM bisulfite.

Chain of NtNBCe1-A (cytoplasmic N-terminal domain of the electrogenic Na/HCO3 cotransporter NBCe1-A, SLC4A4) (UniProt Q9Y6R1) (Q9Y6R1 whole entry, the tested form may be a part): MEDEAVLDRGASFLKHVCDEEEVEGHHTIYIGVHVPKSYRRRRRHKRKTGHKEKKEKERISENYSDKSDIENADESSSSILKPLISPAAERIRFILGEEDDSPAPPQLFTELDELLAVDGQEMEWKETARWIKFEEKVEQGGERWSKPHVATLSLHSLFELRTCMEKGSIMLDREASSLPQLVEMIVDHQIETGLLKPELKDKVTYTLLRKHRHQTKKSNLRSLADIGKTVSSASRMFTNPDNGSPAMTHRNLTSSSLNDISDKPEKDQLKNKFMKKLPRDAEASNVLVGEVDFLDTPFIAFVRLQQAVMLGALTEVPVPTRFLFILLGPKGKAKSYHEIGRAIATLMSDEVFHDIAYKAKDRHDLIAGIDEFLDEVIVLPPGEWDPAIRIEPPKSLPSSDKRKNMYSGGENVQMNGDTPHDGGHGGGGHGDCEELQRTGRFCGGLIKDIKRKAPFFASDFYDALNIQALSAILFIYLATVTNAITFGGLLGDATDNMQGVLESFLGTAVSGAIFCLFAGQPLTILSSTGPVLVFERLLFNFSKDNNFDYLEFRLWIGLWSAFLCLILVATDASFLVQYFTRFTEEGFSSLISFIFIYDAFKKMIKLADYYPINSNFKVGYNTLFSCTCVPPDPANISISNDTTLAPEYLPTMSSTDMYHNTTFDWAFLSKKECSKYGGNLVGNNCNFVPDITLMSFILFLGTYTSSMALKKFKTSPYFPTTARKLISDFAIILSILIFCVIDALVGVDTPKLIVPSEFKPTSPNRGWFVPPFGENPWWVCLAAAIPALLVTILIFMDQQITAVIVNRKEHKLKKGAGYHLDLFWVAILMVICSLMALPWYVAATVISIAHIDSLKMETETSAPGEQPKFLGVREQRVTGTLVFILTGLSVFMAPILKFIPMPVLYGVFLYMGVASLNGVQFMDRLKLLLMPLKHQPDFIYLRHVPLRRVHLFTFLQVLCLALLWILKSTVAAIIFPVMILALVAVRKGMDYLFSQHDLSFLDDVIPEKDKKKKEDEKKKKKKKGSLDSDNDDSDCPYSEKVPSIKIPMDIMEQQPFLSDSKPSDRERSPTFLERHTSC
Chain of NtNBCe1-A (cytoplasmic N-terminal domain of the electrogenic Na/HCO3 cotransporter NBCe1-A, SLC4A4) (UniProt Q9Y6R1+Q9Y6R1) (Q9Y6R1 whole entry, looked up, the tested form may be a part, one chain of several): as the sequence (Q9Y6R1 whole entry, the tested form may be a part) above

Turning to “NtNBCe1-A (cytoplasmic N-terminal domain of the electrogenic Na/HCO3 cotransporter NBCe1-A, SLC4A4)”, in data set [1], the “average molar mass (MALS-SEC)” value is 42.6 kDa (theoretical monomer 40.6 kDa); monomer predominates. For the same molecule, the “average hydrodynamic radius (DLS)” value in data set [2] is recorded as 4.6 nm (theoretical 4.2 nm for pure dimers); monodisperse, Pd < 10%; in data set [3], “increase to 5.0 nm at neutral pH (theoretical 5.6 nm for pure tetramers), consistent with a small amount of dimer-dimer interactions”.

B1: cytoplasmic, N-terminal domain of NBCe1-A (residues 1 to 362) (domain or fragment, human, UniProt Q9Y6R1-2 1-362, looked up)
chain: MSTENVEGKPSNLGERGRARSSTFLRVVQPMFNHSIFTSAVSPAAERIRFILGEEDDSPAPPQLFTELDELLAVDGQEMEWKETARWIKFEEKVEQGGERWSKPHVATLSLHSLFELRTCMEKGSIMLDREASSLPQLVEMIVDHQIETGLLKPELKDKVTYTLLRKHRHQTKKSNLRSLADIGKTVSSASRMFTNPDNGSPAMTHRNLTSSSLNDISDKPEKDQLKNKFMKKLPRDAEASNVLVGEVDFLDTPFIAFVRLQQAVMLGALTEVPVPTRFLFILLGPKGKAKSYHEIGRAIATLMSDEVFHDIAYKAKDRHDLIAGIDEFLDEVIVLPPGEWDPAIRIEPPKSLPSSDKRKNM
notes: NBCe1-A, sodium-bicarbonate cotransporter variant 1A (SLC4 family), cytoplasmic N-terminal domain, residues 1 to 362; theoretical mass of the monomer 40.6 kDa, of the dimer 81.2 kDa; Exists in a concentration- and pH-dependent equilibrium of monomer, dimer and higher-order clusters; also called NtNBCe1-A; NtNBCe1
As to B1, the “stoichiometry N” value in data set [4] came to 2. The “fold increase of high-order self-associations with bisulfite against none” value in data set [5] is ~2 fold.
